Laboratory results as given in article PMC7943578.

Key:
[1] = biological target: CC-Type2-(LaIdGe)4-W19BrPhe; assay: crystal structure; vapour diffusion at 19 C; 0.05 M sodium HEPES, 5% w/v PEG 4000, 5% v/v 2-propanol, pH 7; SAD phasing on bromine
[2] = biological target: CC-Type2-(LaIdGe)4; assay: AUC; sedimentation equilibrium, 70 uM peptide, 20 C, PBS pH 7.4, single species model; self-association of the peptide
[3] = biological target: CC-Type2-(LaIdGe)4; assay: AUC; sedimentation velocity with 25% v/v isopropanol, 150 uM peptide, PBS pH 7.4
[4] = biological target: CC-Type2-(LaIdGe)4; assay: AUC; sedimentation velocity with DPH, absorbance of DPH at 350 nm; 200 uM peptide, 5 uM DPH, 5% v/v DMSO in PBS pH 7.4, 25 C
[5] = biological target: CC-Type2-(LaIdGe)4; assay: AUC; sedimentation equilibrium with 15% v/v isopropanol, 70 uM peptide, PBS pH 7.4, 30-45 krpm, single ideal species fit
[6] = biological target: CC-Type2-(LaIdGe)4; assay: AUC; sedimentation velocity, 150 uM peptide, 20 C, 50 krpm, PBS pH 7.4; self-association of the peptide
[7] = biological target: CC-Type2-(LaIdGe)4; assay: SEC; Superdex75 10/300 GL, 25% v/v IPA in PBS, samples loaded at 150 uM, monitored at 220 nm

Substance | stoichiometry N [1] | stoichiometry N [2] | stoichiometry N (x monomer mass) [3] | stoichiometry N (x monomer mass) [4] | stoichiometry N (x monomer mass) [5] | stoichiometry N [6] | stoichiometry N [7]
CC-Type2-(LaIdGe)4-W19BrPhe (peptide) | 6 | – | – | – | – | – | –
CC-Type2-(LaIdGe)4 (peptide) | – | 6 | 5.5 | 6.2 | 5.7 | 6 | 6
